Numbered stars: 1 amine (or outer) side, 2 acyl side, 3 side chain; on linkers, the order of the positions; unused ones are H or OH. Bridge positions count the residues as written; N and C are the ends. Side chains are listed from the residue outwards. Ends that are not written are not given here. * marks the point of attachment. C20 diacid = O=C(O)CCCCCCCCCCCCCCCCCCC(=O)*; γGlu = O=C(O)[C@H](CCC(=O)[*:2])N[*:1]; AEEA = NCCOCCOCC(=O)O
Columns and labels:
[1] = target: T1, human calcitonin receptor (human, UniProt P30988 25-474); assay: cell-based or functional assay
T1 sequence (looked up): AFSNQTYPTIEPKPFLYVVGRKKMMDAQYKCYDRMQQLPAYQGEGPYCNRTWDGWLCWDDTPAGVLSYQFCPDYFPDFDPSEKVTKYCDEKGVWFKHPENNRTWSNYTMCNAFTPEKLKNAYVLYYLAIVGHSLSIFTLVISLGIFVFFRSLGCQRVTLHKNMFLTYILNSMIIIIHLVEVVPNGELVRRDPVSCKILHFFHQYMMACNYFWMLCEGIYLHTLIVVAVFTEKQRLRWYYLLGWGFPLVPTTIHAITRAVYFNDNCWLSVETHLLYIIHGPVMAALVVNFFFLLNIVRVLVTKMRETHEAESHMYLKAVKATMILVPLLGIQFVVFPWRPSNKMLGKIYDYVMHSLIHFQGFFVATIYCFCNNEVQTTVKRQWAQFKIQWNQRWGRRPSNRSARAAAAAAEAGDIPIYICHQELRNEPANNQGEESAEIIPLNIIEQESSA

[2] = target: T2, human amylin receptor (amylin 3(a) receptor: human calcitonin receptor co-expressed with RAMP-3) (human, UniProt P30988 25-474; O60896 24-148, limits assumed); assay: cell-based or functional assay
T2 sequence (looked up) 1: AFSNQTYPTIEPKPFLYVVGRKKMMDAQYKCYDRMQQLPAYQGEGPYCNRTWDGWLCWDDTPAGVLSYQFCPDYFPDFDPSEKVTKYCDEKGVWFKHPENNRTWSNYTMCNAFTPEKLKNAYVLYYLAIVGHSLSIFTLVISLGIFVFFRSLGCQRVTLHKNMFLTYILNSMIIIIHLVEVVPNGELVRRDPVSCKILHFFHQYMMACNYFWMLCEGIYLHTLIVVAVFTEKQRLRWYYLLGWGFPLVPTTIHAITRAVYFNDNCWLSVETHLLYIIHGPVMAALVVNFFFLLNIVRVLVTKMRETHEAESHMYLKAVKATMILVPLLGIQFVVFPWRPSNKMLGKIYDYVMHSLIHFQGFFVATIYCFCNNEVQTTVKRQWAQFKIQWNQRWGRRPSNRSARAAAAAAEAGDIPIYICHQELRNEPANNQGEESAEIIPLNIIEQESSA
T2 sequence (looked up) 2: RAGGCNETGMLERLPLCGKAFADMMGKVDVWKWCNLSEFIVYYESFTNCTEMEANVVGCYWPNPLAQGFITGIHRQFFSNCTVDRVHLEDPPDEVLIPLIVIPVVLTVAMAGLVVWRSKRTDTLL

rat calcitonin receptor [3] = target: T3, rat calcitonin receptor (rat, UniProt P32214 25-516); assay: SPA competition with 125I-calcitonin, membranes with rat calcitonin receptor (Assay VIII)
T3 construct: whole, on cells; Used as membranes prepared from the transfected cells; also called rCTR; rCT
T3 sequence (looked up): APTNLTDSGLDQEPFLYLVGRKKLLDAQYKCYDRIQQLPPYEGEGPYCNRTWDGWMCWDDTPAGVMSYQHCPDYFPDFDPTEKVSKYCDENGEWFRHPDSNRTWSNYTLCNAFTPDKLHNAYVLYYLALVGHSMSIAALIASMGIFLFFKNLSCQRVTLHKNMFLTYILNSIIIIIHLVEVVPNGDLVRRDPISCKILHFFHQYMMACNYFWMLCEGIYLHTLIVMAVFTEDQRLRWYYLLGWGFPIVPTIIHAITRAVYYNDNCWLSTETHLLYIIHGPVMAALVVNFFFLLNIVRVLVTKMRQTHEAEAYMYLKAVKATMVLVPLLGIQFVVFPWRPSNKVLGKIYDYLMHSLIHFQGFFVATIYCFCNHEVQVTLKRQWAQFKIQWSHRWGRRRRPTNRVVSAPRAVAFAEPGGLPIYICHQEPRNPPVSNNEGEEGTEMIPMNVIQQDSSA

[4] = target: T4, human calcitonin receptor (human, UniProt P30988 25-474); assay: ratio of binding IC50 at human calcitonin receptor to IC50 at human amylin receptor (reference)
T4 construct: whole, on cells; Used as membranes prepared from the transfected cells; also called hCTR; hCT
T4 sequence (looked up): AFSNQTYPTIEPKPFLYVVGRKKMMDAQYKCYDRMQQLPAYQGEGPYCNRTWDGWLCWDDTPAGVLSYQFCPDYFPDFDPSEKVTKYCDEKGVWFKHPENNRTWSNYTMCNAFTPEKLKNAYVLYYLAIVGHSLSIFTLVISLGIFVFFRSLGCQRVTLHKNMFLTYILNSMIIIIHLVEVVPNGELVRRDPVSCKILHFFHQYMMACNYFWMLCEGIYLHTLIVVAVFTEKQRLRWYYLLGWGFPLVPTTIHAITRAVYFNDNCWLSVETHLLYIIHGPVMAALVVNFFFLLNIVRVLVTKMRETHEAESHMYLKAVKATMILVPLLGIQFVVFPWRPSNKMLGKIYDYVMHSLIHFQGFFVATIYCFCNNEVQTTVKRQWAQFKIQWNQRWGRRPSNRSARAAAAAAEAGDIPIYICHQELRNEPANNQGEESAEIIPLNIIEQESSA
Summary of the method: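 Competition binding by SPA uses membrane preparations (35 ng/μL final) in pH 7.4 Hepes buffer with 1 mM CaCl2 and 5 mM MgCl₂. Incubation lasts 120 min at 25° C, and IC₅₀ comes from one-site fitting.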

rat calcitonin receptor [5] = target: T3, rat calcitonin receptor; assay: ratio of binding IC50 at rat calcitonin receptor to IC50 at rat amylin receptor (reference)

B1: N^ε1-[2-[2-[2-[[(4S)-4-carboxy-4-(19-carboxynonadecanoylamino)butanoyl]amino]ethoxy]ethoxy]acetyl]-[Arg17,Pro21,Pro27]-h-amylin (peptide)
peptide: K([AEEA-γGlu-C20 diacid])CNTATCATQRLANFLRHSSPNFGAIPSSTNVGSNTY-NH2
modifications: disulfide 2-7; N-terminus assumed
SMILES: CC[C@H](C)[C@H](NC(=O)[C@H](C)NC(=O)CNC(=O)[C@H](Cc1ccccc1)NC(=O)[C@H](CC(N)=O)NC(=O)[C@@H]1CCCN1C(=O)[C@H](CO)NC(=O)[C@H](CO)NC(=O)[C@H](Cc1c[nH]cn1)NC(=O)[C@H](CCCNC(=N)N)NC(=O)[C@H](CC(C)C)NC(=O)[C@H](Cc1ccccc1)NC(=O)[C@H](CC(N)=O)NC(=O)[C@H](C)NC(=O)[C@H](CC(C)C)NC(=O)[C@H](CCCNC(=N)N)NC(=O)[C@H](CCC(N)=O)NC(=O)[C@@H](NC(=O)[C@H](C)NC(=O)[C@@H]1CSSC[C@H](NC(=O)[C@@H](N)CCCCNC(=O)COCCOCCNC(=O)CC[C@H](NC(=O)CCCCCCCCCCCCCCCCCCC(=O)O)C(=O)O)C(=O)N[C@@H](CC(N)=O)C(=O)N[C@@H]([C@@H](C)O)C(=O)N[C@@H](C)C(=O)N[C@@H]([C@@H](C)O)C(=O)N1)[C@@H](C)O)C(=O)N1CCC[C@H]1C(=O)N[C@@H](CO)C(=O)N[C@@H](CO)C(=O)N[C@H](C(=O)N[C@@H](CC(N)=O)C(=O)N[C@H](C(=O)NCC(=O)N[C@@H](CO)C(=O)N[C@@H](CC(N)=O)C(=O)N[C@H](C(=O)N[C@@H](Cc1ccc(O)cc1)C(N)=O)[C@@H](C)O)C(C)C)[C@@H](C)O
notes: also called compound 41
Ratio hCT/hAmylin funct. (hCTR EC50 against hAmylin-R EC50) [1]: 16.7
hCTR funct. EC50 [1]: 4.35 nM
hAmylin-R funct. EC50 [2]: 0.26 nM

B2: N^α1-[(4S)-4-carboxy-4-(19-carboxynonadecanoylamino)butanoyl]-[Arg17,Pro21,Pro27,Arg34]-h-amylin (peptide)
peptide: KCNTATCATQRLANFLRHSSPNFGAIPSSTNVGRNTY
modifications: alpha amino group of the N-terminal residue (Lys1) acylated with C20 diacid-gGlu; disulfide bridge Cys2-Cys7; C-terminal amide
notes: also called compound 39
Ratio hCT/hAmylin funct. (hCTR EC50 against hAmylin-R EC50) [1]: 11.6
hCTR funct. EC50 [1]: 2.52 nM
hAmylin-R funct. EC50 [2]: 0.217 nM

B3: N^α1-[(4S)-4-carboxy-4-(19-carboxynonadecanoylamino)butanoyl]-[Arg17,Pro21,Pro27,His34]-h-amylin (peptide)
peptide: KCNTATCATQRLANFLRHSSPNFGAIPSSTNVGHNTY
modifications: alpha amino group of the N-terminal residue (Lys1) acylated with C20 diacid-gGlu; disulfide bridge Cys2-Cys7; C-terminal amide
notes: also called compound 40
Ratio hCT/hAmylin funct. (hCTR EC50 against hAmylin-R EC50) [1]: 16.4
hAmylin-R funct. EC50 [2]: 0.164 nM

B4: N^ε1-[(4S)-4-carboxy-4-[[(4S)-4-carboxy-4-(19-carboxynonadecanoylamino)butanoyl]amino]butanoyl]-[His14,Arg17,Pro21,Pro27]-h-amylin (peptide)
peptide: K([γGlu-γGlu-C20 diacid])CNTATCATQRLAHFLRHSSPNFGAIPSSTNVGSNTY-NH2
modifications: disulfide 2-7; N-terminus assumed
SMILES: CC[C@H](C)[C@H](NC(=O)[C@H](C)NC(=O)CNC(=O)[C@H](Cc1ccccc1)NC(=O)[C@H](CC(N)=O)NC(=O)[C@@H]1CCCN1C(=O)[C@H](CO)NC(=O)[C@H](CO)NC(=O)[C@H](Cc1c[nH]cn1)NC(=O)[C@H](CCCNC(=N)N)NC(=O)[C@H](CC(C)C)NC(=O)[C@H](Cc1ccccc1)NC(=O)[C@H](Cc1c[nH]cn1)NC(=O)[C@H](C)NC(=O)[C@H](CC(C)C)NC(=O)[C@H](CCCNC(=N)N)NC(=O)[C@H](CCC(N)=O)NC(=O)[C@@H](NC(=O)[C@H](C)NC(=O)[C@@H]1CSSC[C@H](NC(=O)[C@@H](N)CCCCNC(=O)CC[C@H](NC(=O)CC[C@H](NC(=O)CCCCCCCCCCCCCCCCCCC(=O)O)C(=O)O)C(=O)O)C(=O)N[C@@H](CC(N)=O)C(=O)N[C@@H]([C@@H](C)O)C(=O)N[C@@H](C)C(=O)N[C@@H]([C@@H](C)O)C(=O)N1)[C@@H](C)O)C(=O)N1CCC[C@H]1C(=O)N[C@@H](CO)C(=O)N[C@@H](CO)C(=O)N[C@H](C(=O)N[C@@H](CC(N)=O)C(=O)N[C@H](C(=O)NCC(=O)N[C@@H](CO)C(=O)N[C@@H](CC(N)=O)C(=O)N[C@H](C(=O)N[C@@H](Cc1ccc(O)cc1)C(N)=O)[C@@H](C)O)C(C)C)[C@@H](C)O
notes: Analogue of human amylin; disulfide and C-terminal amide as told for h-amylin; also called compound 92
IC50 (rat calcitonin receptor [3]): 104 nM
Ratio hCT/hAmylin binding [4]: 145
Ratio rCT/rAmylin binding (rat calcitonin receptor [5]): 156

B5: N^ε1-[2-[2-[2-(19-carboxynonadecanoylamino)ethoxy]ethoxy]acetyl]-[His14,Arg17,Pro21,Pro27]-h-amylin (peptide)
peptide: K([AEEA-C20 diacid])CNTATCATQRLAHFLRHSSPNFGAIPSSTNVGSNTY-NH2
modifications: disulfide 2-7; N-terminus assumed
SMILES: CC[C@H](C)[C@H](NC(=O)[C@H](C)NC(=O)CNC(=O)[C@H](Cc1ccccc1)NC(=O)[C@H](CC(N)=O)NC(=O)[C@@H]1CCCN1C(=O)[C@H](CO)NC(=O)[C@H](CO)NC(=O)[C@H](Cc1c[nH]cn1)NC(=O)[C@H](CCCNC(=N)N)NC(=O)[C@H](CC(C)C)NC(=O)[C@H](Cc1ccccc1)NC(=O)[C@H](Cc1c[nH]cn1)NC(=O)[C@H](C)NC(=O)[C@H](CC(C)C)NC(=O)[C@H](CCCNC(=N)N)NC(=O)[C@H](CCC(N)=O)NC(=O)[C@@H](NC(=O)[C@H](C)NC(=O)[C@@H]1CSSC[C@H](NC(=O)[C@@H](N)CCCCNC(=O)COCCOCCNC(=O)CCCCCCCCCCCCCCCCCCC(=O)O)C(=O)N[C@@H](CC(N)=O)C(=O)N[C@@H]([C@@H](C)O)C(=O)N[C@@H](C)C(=O)N[C@@H]([C@@H](C)O)C(=O)N1)[C@@H](C)O)C(=O)N1CCC[C@H]1C(=O)N[C@@H](CO)C(=O)N[C@@H](CO)C(=O)N[C@H](C(=O)N[C@@H](CC(N)=O)C(=O)N[C@H](C(=O)NCC(=O)N[C@@H](CO)C(=O)N[C@@H](CC(N)=O)C(=O)N[C@H](C(=O)N[C@@H](Cc1ccc(O)cc1)C(N)=O)[C@@H](C)O)C(C)C)[C@@H](C)O
notes: Analogue of human amylin; disulfide and C-terminal amide as told for h-amylin; also called compound 90
IC50 (rat calcitonin receptor [3]): 18.2 nM
Ratio hCT/hAmylin binding [4]: 42.2
Ratio rCT/rAmylin binding (rat calcitonin receptor [5]): 74.1

B6: N^ε1-[(4S)-4-carboxy-4-(19-carboxynonadecanoylamino)butanoyl]-[His14,Arg17,Pro21,Pro27]-h-amylin (peptide)
peptide: K([γGlu-C20 diacid])CNTATCATQRLAHFLRHSSPNFGAIPSSTNVGSNTY-NH2
modifications: disulfide 2-7; N-terminus assumed
SMILES: CC[C@H](C)[C@H](NC(=O)[C@H](C)NC(=O)CNC(=O)[C@H](Cc1ccccc1)NC(=O)[C@H](CC(N)=O)NC(=O)[C@@H]1CCCN1C(=O)[C@H](CO)NC(=O)[C@H](CO)NC(=O)[C@H](Cc1c[nH]cn1)NC(=O)[C@H](CCCNC(=N)N)NC(=O)[C@H](CC(C)C)NC(=O)[C@H](Cc1ccccc1)NC(=O)[C@H](Cc1c[nH]cn1)NC(=O)[C@H](C)NC(=O)[C@H](CC(C)C)NC(=O)[C@H](CCCNC(=N)N)NC(=O)[C@H](CCC(N)=O)NC(=O)[C@@H](NC(=O)[C@H](C)NC(=O)[C@@H]1CSSC[C@H](NC(=O)[C@@H](N)CCCCNC(=O)CC[C@H](NC(=O)CCCCCCCCCCCCCCCCCCC(=O)O)C(=O)O)C(=O)N[C@@H](CC(N)=O)C(=O)N[C@@H]([C@@H](C)O)C(=O)N[C@@H](C)C(=O)N[C@@H]([C@@H](C)O)C(=O)N1)[C@@H](C)O)C(=O)N1CCC[C@H]1C(=O)N[C@@H](CO)C(=O)N[C@@H](CO)C(=O)N[C@H](C(=O)N[C@@H](CC(N)=O)C(=O)N[C@H](C(=O)NCC(=O)N[C@@H](CO)C(=O)N[C@@H](CC(N)=O)C(=O)N[C@H](C(=O)N[C@@H](Cc1ccc(O)cc1)C(N)=O)[C@@H](C)O)C(C)C)[C@@H](C)O
notes: Analogue of human amylin; disulfide and C-terminal amide as told for h-amylin; also called compound 70
IC50 (rat calcitonin receptor [3]): 34.2 nM
Ratio hCT/hAmylin binding [4]: 60.8
Ratio rCT/rAmylin binding (rat calcitonin receptor [5]): 96.5
